Data on two molecules can be found in publication PMC10397247.

What all share (assay): two-hybrid library CCmax;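 also: natural log of median RNA to DNA barcode read ratio; higher means stronger binding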
One experiment has as its target T1, 4H1552-AA.
T1 chain: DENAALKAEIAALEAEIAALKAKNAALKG
Conditions: mean of both orientations.

The target of a further experiment is T2, 4H3056-AA.
T2 chain: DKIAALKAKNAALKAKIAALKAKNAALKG
Conditions: mean of both orientations.

A further experiment deals with T3, 4H1636-AA.
T3 chain: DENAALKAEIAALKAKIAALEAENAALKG
Particulars: mean of both orientations.

A further experiment concerns the target T4, 4H3413-AA.
T4 chain: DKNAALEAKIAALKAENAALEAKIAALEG
Conditions: mean of both orientations.

Another experiment deals with T5, 4H794-AA.
T5 chain: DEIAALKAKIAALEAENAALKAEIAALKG
Conditions: mean of both orientations.

Another experiment has as its target T6, 4H678-AA.
T6 chain: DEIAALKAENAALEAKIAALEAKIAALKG
Conditions: mean of both orientations.

Another experiment concerns the target T7, 4H2648-AA.
T7 chain: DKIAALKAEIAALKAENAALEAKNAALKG
Conditions: mean of both orientations.

A further experiment concerns the target T8, 4H3427-AA.
T8 chain: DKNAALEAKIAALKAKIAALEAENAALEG
Particulars: mean of both orientations.

The target in a further experiment is T9, 4H2277-AA.
T9 chain: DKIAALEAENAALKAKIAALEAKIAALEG
Conditions: mean of both orientations.

Another experiment addresses T10, 4H906-AA.
T10 chain: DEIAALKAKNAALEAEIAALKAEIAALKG
Particulars: mean of both orientations.

Another experiment deals with T11, 4H1867-AA.
T11 chain: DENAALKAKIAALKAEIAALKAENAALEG
Conditions: mean of both orientations.

A further experiment concerns the target T12, 4H3378-AA.
T12 chain: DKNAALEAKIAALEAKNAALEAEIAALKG
Conditions: mean of both orientations.

Another experiment has as its target T13, 4H1310-AA.
T13 chain: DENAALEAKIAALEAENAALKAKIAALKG
Particulars: mean of both orientations.

In the next experiment the target is T14, 4H123-AA.
T14 chain: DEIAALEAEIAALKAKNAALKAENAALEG
Conditions: mean of both orientations.

In the next experiment the target is T15, 4H2505-AA.
T15 chain: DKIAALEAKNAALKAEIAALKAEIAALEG
Conditions: mean of both orientations.

A further experiment addresses T16, 4H335-AA.
T16 chain: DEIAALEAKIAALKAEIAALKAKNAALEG
Particulars: mean of both orientations.

In a further experiment the target is T17, 4H1845-AA.
T17 chain: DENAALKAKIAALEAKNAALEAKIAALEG
Conditions: mean of both orientations.

The target in another experiment is T18, 4H2575-AA.
T18 chain: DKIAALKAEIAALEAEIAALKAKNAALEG

In another experiment the target is T19, 4H174-AA.
T19 chain: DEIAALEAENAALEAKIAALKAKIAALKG
Particulars: mean of both orientations.

The next experiment concerns the target T20, 4H2162-AA.
T20 chain: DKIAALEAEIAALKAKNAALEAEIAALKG
Particulars: mean of both orientations.

The target in a further experiment is T21, 4H1597-AA.
T21 chain: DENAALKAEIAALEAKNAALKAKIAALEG
Conditions: mean of both orientations.

The next experiment has as its target T22, 4H1864-AA.
T22 chain: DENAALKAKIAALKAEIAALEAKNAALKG
Conditions: mean of both orientations.

As to DENAALEAENAALEAEIAALEAEIAALEG [4H1153-AA], the interaction score in the experiment with 4H1552-AA was -0.818; with 4H3056-AA it was 1.46; with 4H1636-AA it was -1.31; with 4H3413-AA, -1.92; with 4H794-AA it was -1.49; in the experiment with 4H678-AA, -0.487. Besides, the interaction score with 4H2648-AA was -1.19; with 4H3427-AA, -0.781; in the experiment with 4H2277-AA it was -1.07; with 4H906-AA it was -1.21; in the experiment with 4H1867-AA, 0.531; with 4H3378-AA, -1.72. The interaction score with 4H1310-AA is -1.28; in the experiment with 4H123-AA, -2.05; in the experiment with 4H2505-AA, 0.301; with 4H335-AA, -0.418; in the experiment with 4H1845-AA, -1.27; with 4H2575-AA, -0.264.
On to DENAALEAEIAALKAKNAALEAKIAALKG [4H1142-AA], for which the interaction score was -1.15 with 4H3056-AA; -0.4 with 4H174-AA; 0.554 in the experiment with 4H3413-AA; -0.52 in the experiment with 4H2648-AA; 0.00334 with 4H2162-AA; -0.868 with 4H3378-AA. The interaction score was -1.26 with 4H1310-AA; -1.25 with 4H123-AA; 0.572 in the experiment with 4H1597-AA; -1.38 with 4H1864-AA; -0.689 with 4H1845-AA.
